Like-named read-outs stand apart in the source and are kept apart here.
What was measured:
Assay in all cases: UV peptide exchange + HLA class I ELISA
HLA-B*08:01 (human) = conditions: remark: other sources report otherwise
HLA-A*01:01 (human) = conditions: remark: other sources report otherwise
HLA-B*07:02 (human) = molecular target: HLA-B*07:02 (human)
HLA-A*03:01 (human) = molecular target: HLA-A*03:01 (human)
HLA-A*11:01 (human) = molecular target: HLA-A*11:01 (human)
HLA-A*02:01 (human) = molecular target: HLA-A*02:01 (human)
HLA-A*24:02 (human) = molecular target: HLA-A*24:02 (human)
[1] = remark: other sources report otherwise

With HLSLRGLPV (modifications not checked) [x52-60] the Bindings% (of positive control) (HLA-B*08:01 (human)) was 79.8%.

PLDKGIKPYY (modifications not checked) [p124-133] was tested, and the Bindings% (of positive control) (HLA-A*01:01 (human)) was 26.7%.

GPCALRFTS (modifications not checked) [x67-75] gave a Bindings% (of positive control) (HLA-B*07:02 (human)) of 26.9%.

LPVCAFSSA (modifications not checked) [x58-66] showed a Bindings% (of positive control) (HLA-B*07:02 (human); [1]) of 52.8%.

Work on RVHFASPLH (modifications not checked) [p829-837] yielded a Bindings% (of positive control) (HLA-A*03:01 (human)) of 68.8% and a Bindings% (of positive control) (HLA-A*11:01 (human)) of 39.5%.

FAVPNLQSL (modifications not checked) [p407-415] was tested, and the Bindings% (of positive control) (HLA-A*02:01 (human)) was 33.3%.

SFCGSPYSW (modifications not checked) [p167-175] gave a Bindings% (of positive control) (HLA-A*24:02 (human)) of 84%.

In the case of VLCLRPVGA (modifications not checked) [x15-23], the Bindings% (of positive control) (HLA-A*02:01 (human); [1]) is reported as 31.7%.

For TTDLEAYFK (modifications not checked) [x105-113], the Bindings% (of positive control) (HLA-A*01:01 (human)) was 41.7%.

VFADATPTGW (modifications not checked) [p697-706] was tested, and the Bindings% (of positive control) (HLA-A*24:02 (human)) was 40.4%.

Work on MSTTDLEAY (modifications not checked) [x103-111] yielded a Bindings% (of positive control) (HLA-A*01:01 (human)) of 30.2%.

GYPALMPLY (modifications not checked) [p650-658] was tested, and the Bindings% (of positive control) (HLA-A*24:02 (human)) was 42.7%.

Work on STTDLEAYFK (modifications not checked) [x104-113] yielded a Bindings% (of positive control) (HLA-A*11:01 (human); [1]) of 98.7%.

With VLHKRTLGL (modifications not checked) [x92-100] the Bindings% (of positive control) (HLA-B*08:01 (human)) was 60.8%.

Work on CGYPALMPLY (modifications not checked) [p649-658] yielded a Bindings% (of positive control) (HLA-A*24:02 (human)) of 38.1%.

For LPIHTAELL (modifications not checked) [p723-731], the Bindings% (of positive control) (HLA-B*07:02 (human); [1]) was 32.3%.

In the case of WPKFAVPNL (modifications not checked) [p404-412], the Bindings% (of positive control) (HLA-B*07:02 (human); [1]) is reported as 70.5%.
